Reference: patent publication US20200299347A1 (Merck KGaA, published 2020)

B1: FGF18 SEED fasinumab (SEED-A) (other)
chain: EENVDFRIHVENQTRARDDVSRKQLRLYQLYSRTSGKHIQVLGRRISARGEDGDKYAQLLVETDTFGSQVRIKGKETEFYLCMNRKGKLVGKPDGTSKECVFIEKVLENNYTALMSAKYSGWYVGFTKKGRPRKGPKTRENQQDVHFMKRYPKGQPELQKPFKYTTVTKGGGGSGGGGSDKTHTCPPCPAPEAAGGPSVFLFPPKPKDTLMISRTPEVTCVVVDVSHEDPEVKFNWYVDGVEVHNAKTKPREEQYNSTYRVVSVLTVLHQDWLNGKEYKCKVSNKALPAPIEKTISKAKGQPFRPEVHLLPPSREEMTKNQVSLTCLARGFYPKDIAVEWESNGQPENNYKTTPSRQEPSQGTTTFAVTSKLTVDKSRWQQGNVFSCSVMHEALHNHYTQKTISLSPGK
heavy: QVQLVQSGAEVKKPGASVKVSCKVSGFTLTELSIHWVRQAPGKGLEWMGGFDPEDGETIYAQKFQGRVTMTEDTSTDTAYMELTSLRSEDTAVYYCSTIFGVVTNFDNWGQGTLVTVSSASTKGPSVFPLAPSSKSTSGGTAALGCLVKDYFPEPVTVSWNSGALTSGVHTFPAVLQSSGLYSLSSVVTVPSSSLGTQTYICNVNHKPSNTKVDKKVEPKSCDKTHTCPPCPAPEAAGGPSVFLFPPKPKDTLMISRTPEVTCVVVDVSHEDPEVKFNWYVDGVEVHNAKTKPREEQYNSTYRVVSVLTVLHQDWLNGKEYKCKVSNKALPAPIEKTISKAKGQPREPQVYTLPPPSEELALNELVTLTCLVKGFYPSDIAVEWLQGSQELPREKYLTWAPVLDSDGSFFLYSILRVAAEDWKKGDTFSCSVMHEALHNRFTQKSLDRSPGK
light: DIQMTQSPSSLSASAGDRVTITCRASQAIRNDLGWYQQKPGKAPKRLIYAAFNLQSGVPSRFSGSGSGTEFTLTISSLQPEDLASYYCQQYNRYPWTFGQGTKVEIKRTVAAPSVFIFPPSDEQLKSGTASVVCLLNNFYPREAKVQWKVDNALQSGNSQESVTEQDSKDSTYSLSSTLTLSKADYEKHKVYACEVTHQGLSSPVTKSFNRGEC
B2: FGF18 SEED fulranumab (SEED-B) (other)
chain: B1 chain
heavy: EVQLVESGGGLVQPGGSLRLSCAASGFTLRSYSMNWVRQAPGKGLEWVSYISRSSHTIFYADSVKGRFTISRDNAKNSLYLQMDSLRDEDTAMYYCARVYSSGWHVSDYFDYWGQGILVTVSSASTKGPSVFPLAPSSKSTSGGTAALGCLVKDYFPEPVTVSWNSGALTSGVHTFPAVLQSSGLYSLSSVVTVPSSSLGTQTYICNVNHKPSNTKVDKKVEPKSCDKTHTCPPCPAPEAAGGPSVFLFPPKPKDTLMISRTPEVTCVVVDVSHEDPEVKFNWYVDGVEVHNAKTKPREEQYNSTYRVVSVLTVLHQDWLNGKEYKCKVSNKALPAPIEKTISKAKGQPREPQVYTLPPPSEELALNELVTLTCLVKGFYPSDIAVEWLQGSQELPREKYLTWAPVLDSDGSFFLYSILRVAAEDWKKGDTFSCSVMHEALHNRFTQKSLDRSPGK
light: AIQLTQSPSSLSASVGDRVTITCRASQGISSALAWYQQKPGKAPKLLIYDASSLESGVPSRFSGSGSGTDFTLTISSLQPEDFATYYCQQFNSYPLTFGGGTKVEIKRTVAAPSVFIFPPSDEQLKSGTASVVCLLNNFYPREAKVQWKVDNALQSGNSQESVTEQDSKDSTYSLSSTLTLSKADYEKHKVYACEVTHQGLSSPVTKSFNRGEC
B3: FGF18 SEED (HO124) (other)
chain: EENVDFRIHVENQTRARDDVSRKQLRLYQLYSRTSGKHIQVLGRRISARGEDGDKYAQLLVETDTFGSQVRIKGKETEFYLCMNRKGKLVGKPDGTSKECVFIEKVLENNYTALMSAKYSGWYVGFTKKGRPRKGPKTRENQQDVHFMKRYPKGQPELQKPFKYTTVTKGGSGGSGSGSEPKSSDKTHTCPPCPAPEAAGGPSVFLFPPKPKDTLMISRTPEVTCVVVDVSHEDPEVKFNWYVDGVEVHNAKTKPREEQYNSTYRVVSVLTVLHQDWLNGKEYKCKVSNKALGAPIEKTISKAKGQPREPQVYTLPPPSEELALNELVTLTCLVKGFYPSDIAVEWLQGSQELPREKYLTWAPVLDSDGSFFLYSILRVAAEDWKKGDTFSCSVMHEALHNRFTQKSLDRSPGK
heavy: QVQLQESGPGLVKPSETLSLTCTVSGFSLIGYDLNWIRQPPGKGLEWIGIIWGDGTTDYNSAVKSRVTISKDTSKNQFSLKLSSVTAADTAVYYCARGGYWYATSYYFDYWGQGTLVTVSSASTKGPSVFPLAPSSKSTSGGTAALGCLVKDYFPEPVTVSWNSGALTSGVHTFPAVLQSSGLYSLSSVVTVPSSSLGTQTYICNVNHKPSNTKVDKKVEPKSCDKTHTCPPCPAPEAAGGPSVFLFPPKPKDTLMISRTPEVTCVVVDVSHEDPEVKFNWYVDGVEVHNAKTKPREEQYNSTYRVVSVLTVLHQDWLNGKEYKCKVSNKALGAPIEKTISKAKGQPFRPEVHLLPPSREEMTKNQVSLTCLARGFYPKDIAVEWESNGQPENNYKTTPSRQEPSQGTTTFAVTSKLTVDKSRWQQGNVFSCSVMHEALHNHYTQKTISLSPGK
light: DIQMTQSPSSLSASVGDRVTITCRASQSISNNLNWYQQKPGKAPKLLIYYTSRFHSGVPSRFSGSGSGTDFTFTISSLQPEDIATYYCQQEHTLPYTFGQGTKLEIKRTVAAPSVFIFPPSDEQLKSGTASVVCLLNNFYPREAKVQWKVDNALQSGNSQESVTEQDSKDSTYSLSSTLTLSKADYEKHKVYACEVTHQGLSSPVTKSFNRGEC
B4: FGF18 SEED (HO114) (other)
heavy: B3 heavy
chain: EPKSSDKTHTCPPCPAPEAAGGPSVFLFPPKPKDTLMISRTPEVTCVVVDVSHEDPEVKFNWYVDGVEVHNAKTKPREEQYNSTYRVVSVLTVLHQDWLNGKEYKCKVSNKALGAPIEKTISKAKGQPREPQVYTLPPPSEELALNELVTLTCLVKGFYPSDIAVEWLQGSQELPREKYLTWAPVLDSDGSFFLYSILRVAAEDWKKGDTFSCSVMHEALHNRFTQKSLDRSPGK
light: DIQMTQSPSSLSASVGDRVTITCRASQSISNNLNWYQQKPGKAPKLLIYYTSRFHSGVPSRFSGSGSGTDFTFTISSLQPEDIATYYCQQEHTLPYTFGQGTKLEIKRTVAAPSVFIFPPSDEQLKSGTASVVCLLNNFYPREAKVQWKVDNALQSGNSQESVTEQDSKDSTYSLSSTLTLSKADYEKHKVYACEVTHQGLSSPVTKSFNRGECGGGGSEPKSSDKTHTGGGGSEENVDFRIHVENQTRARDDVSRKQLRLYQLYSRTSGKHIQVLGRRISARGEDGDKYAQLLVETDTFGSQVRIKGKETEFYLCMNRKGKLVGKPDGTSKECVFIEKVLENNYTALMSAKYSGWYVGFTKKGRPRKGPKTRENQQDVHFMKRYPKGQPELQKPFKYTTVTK
B5: FGF18 SEED (HOF3) (other)
light: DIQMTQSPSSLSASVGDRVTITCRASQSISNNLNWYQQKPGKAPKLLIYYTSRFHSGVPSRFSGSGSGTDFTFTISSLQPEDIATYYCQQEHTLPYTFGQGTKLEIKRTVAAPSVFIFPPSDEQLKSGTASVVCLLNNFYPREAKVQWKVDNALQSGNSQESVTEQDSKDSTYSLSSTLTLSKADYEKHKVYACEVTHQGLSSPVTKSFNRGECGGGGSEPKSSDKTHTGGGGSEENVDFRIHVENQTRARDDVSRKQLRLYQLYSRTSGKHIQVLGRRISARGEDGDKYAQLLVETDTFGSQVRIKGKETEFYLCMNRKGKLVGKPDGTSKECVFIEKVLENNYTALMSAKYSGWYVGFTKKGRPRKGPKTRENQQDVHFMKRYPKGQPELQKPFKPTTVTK
heavy: QVQLQESGPGLVKPSETLSLTCTVSGFSLIGYDLNWIRQPPGKGLEWIGIIWGDGTTDYNSAVKSRVTISKDTSKNQFSLKLSSVTAADTAVYYCARGGYWYATSYYFDYWGQGTLVTVSSASTKGPSVFPLAPSSKSTSGGTAALGCLVKDYFPEPVTVSWNSGALTSGVHTFPAVLQSSGLYSLSSVVTVPSSSLGTQTYICNVNHKPSNTKVDKKVEPKSC
B6: FGF18_scFv fasinumab (LH) (other)
chain: EENVDFRIHVENQTRARDDVSRKQLRLYQLYSRTSGKHIQVLGRRISARGEDGDKYAQLLVETDTFGSQVRIKGKETEFYLCMNRKGKLVGKPDGTSKECVFIEKVLENNYTALMSAKYSGWYVGFTKKGRPRKGPKTRENQQDVHFMKRYPKGQPELQKPFKYTTVTKGGGGSGGGGSGGGGSDIQMTQSPSSLSASAGDRVTITCRASQAIRNDLGWYQQKPGKAPKRLIYAAFNLQSGVPSRFSGSGSGTEFTLTISSLQPEDLASYYCQQYNRYPWTFGQGTKVEIKGGGGSGGGGSGGGGSQVQLVQSGAEVKKPGASVKVSCKVSGFTLTELSIHWVRQAPGKGLEWMGGFDPEDGETIYAQKFQGRVTMTEDTSTDTAYMELTSLRSEDTAVYYCSTIFGVVTNFDNWGQGTLVTVSS
B7: FGF18 SEED (HO110) (other)
chain: EPKSSDKTHTCPPCPAPEAAGGPSVFLFPPKPKDTLMISRTPEVTCVVVDVSHEDPEVKFNWYVDGVEVHNAKTKPREEQYNSTYRVVSVLTVLHQDWLNGKEYKCKVSNKALGAPIEKTISKAKGQPREPQVYTLPPPSEELALNELVTLTCLVKGFYPSDIAVEWLQGSQELPREKYLTWAPVLDSDGSFFLYSILRVAAEDWKKGDTFSCSVMHEALHNRFTQKSLDRSPGKEPKSSDKTHTEENVDFRIHVENQTRARDDVSRKQLRLYQLYSRTSGKHIQVLGRRISARGEDGDKYAQLLVETDTFGSQVRIKGKETEFYLCMNRKGKLVGKPDGTSKECVFIEKVLENNYTALMSAKYSGWYVGFTKKGRPRKGPKTRENQQDVHFMKRYPKGQPELQKPFKYTTVTK
heavy: QVQLQESGPGLVKPSETLSLTCTVSGFSLIGYDLNWIRQPPGKGLEWIGIIWGDGTTDYNSAVKSRVTISKDTSKNQFSLKLSSVTAADTAVYYCARGGYWYATSYYFDYWGQGTLVTVSSASTKGPSVFPLAPSSKSTSGGTAALGCLVKDYFPEPVTVSWNSGALTSGVHTFPAVLQSSGLYSLSSVVTVPSSSLGTQTYICNVNHKPSNTKVDKKVEPKSCDKTHTCPPCPAPEAAGGPSVFLFPPKPKDTLMISRTPEVTCVVVDVSHEDPEVKFNWYVDGVEVHNAKTKPREEQYNSTYRVVSVLTVLHQDWLNGKEYKCKVSNKALGAPIEKTISKAKGQPREPQVYTLPPPSEELALNELVTLTCLVKGFYPSDIAVEWLQGSQELPREKYLTWAPVLDSDGSFFLYSILRVAAEDWKKGDTFSCSVMHEALHNRFTQKSLDRSPGK
light: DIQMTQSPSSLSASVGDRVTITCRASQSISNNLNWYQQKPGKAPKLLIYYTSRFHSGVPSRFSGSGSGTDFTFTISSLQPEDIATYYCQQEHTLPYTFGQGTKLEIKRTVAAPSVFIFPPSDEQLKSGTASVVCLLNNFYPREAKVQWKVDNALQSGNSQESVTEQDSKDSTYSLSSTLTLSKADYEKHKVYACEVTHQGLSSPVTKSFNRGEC
B8: FGF18 SEED (HO113) (other)
chain: EPKSSDKTHTCPPCPAPEAAGGPSVFLFPPKPKDTLMISRTPEVTCVVVDVSHEDPEVKFNWYVDGVEVHNAKTKPREEQYNSTYRVVSVLTVLHQDWLNGKEYKCKVSNKALGAPIEKTISKAKGQPREPQVYTLPPPSEELALNELVTLTCLVKGFYPSDIAVEWLQGSQELPREKYLTWAPVLDSDGSFFLYSILRVAAEDWKKGDTFSCSVMHEALHNRFTQKSLDRSPGKGGGGSEPKSSDKTHTGGGGSEENVDFRIHVENQTRARDDVSRKQLRLYQLYSRTSGKHIQVLGRRISARGEDGDKYAQLLVETDTFGSQVRIKGKETEFYLCMNRKGKLVGKPDGTSKECVFIEKVLENNYTALMSAKYSGWYVGFTKKGRPRKGPKTRENQQDVHFMKRYPKGQPELQKPFKYTTVTKRSRRIRPTHPA
heavy: B7 heavy
light: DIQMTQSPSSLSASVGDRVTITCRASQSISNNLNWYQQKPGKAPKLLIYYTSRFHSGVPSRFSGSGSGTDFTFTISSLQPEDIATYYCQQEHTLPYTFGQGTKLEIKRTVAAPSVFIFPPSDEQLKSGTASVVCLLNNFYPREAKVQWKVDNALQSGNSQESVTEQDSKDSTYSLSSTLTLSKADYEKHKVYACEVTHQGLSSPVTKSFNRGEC
B9: FGF18_scFv tanezumab (LH) (other)
chain: EENVDFRIHVENQTRARDDVSRKQLRLYQLYSRTSGKHIQVLGRRISARGEDGDKYAQLLVETDTFGSQVRIKGKETEFYLCMNRKGKLVGKPDGTSKECVFIEKVLENNYTALMSAKYSGWYVGFTKKGRPRKGPKTRENQQDVHFMKRYPKGQPELQKPFKYTTVTKGGGGSGGGGSGGGGSDIQMTQSPSSLSASVGDRVTITCRASQSISNNLNWYQQKPGKAPKLLIYYTSRFHSGVPSRFSGSGSGTDFTFTISSLQPEDIATYYCQQEHTLPYTFGQGTKLEIKGGGGSGGGGSGGGGSQVQLQESGPGLVKPSETLSLTCTVSGFSLIGYDLNWIRQPPGKGLEWIGIIWGDGTTDYNSAVKSRVTISKDTSKNQFSLKLSSVTAADTAVYYCARGGYWYATSYYFDYWGQGTLVTVSS

molecular target: NGF; test: cell-based or functional assay
Sequence (P01138 122-241): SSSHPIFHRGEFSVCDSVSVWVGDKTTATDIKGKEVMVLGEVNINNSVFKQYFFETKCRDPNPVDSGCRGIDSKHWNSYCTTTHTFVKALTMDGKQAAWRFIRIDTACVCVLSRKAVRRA

**Q.** B1 was tested. Which “anti-NGF IC50 (nM), U2OS TrkA_p75 assay; construct from expiCHO-S” value (shortened to “anti-NGF IC50 (nM) … from expiCHO-S”) did it give?
**A.** The value was 0.29 nM.

**Q.** For B2, which “anti-NGF IC50 (nM) … from expiCHO-S” value is on record?
**A.** Its value is 0.25 nM.

**Q.** B3 was tested. Which “anti-NGF IC50 (nM) … from expiCHO-S” value did it give?
**A.** The value was 0.89 nM.

**Q.** B4 was tested. Which “anti-NGF IC50 (nM) … from expiCHO-S” value did it give?
**A.** The value was 0.88 nM.

**Q.** B5 was tested. Which “anti-NGF IC50 (nM) … from expiCHO-S” value did it give?
**A.** Its value is 0.98 nM.

**Q.** For B6, which “anti-NGF IC50 (nM), U2OS TrkA_p75 assay; construct from HEK293” value is on record?
**A.** Its value is 0.62 nM.

**Q.** With B7 as the binder, how does the “anti-NGF IC50 (nM) … from expiCHO-S” value read?
**A.** Its value is 0.89 nM.

**Q.** For B8, which “anti-NGF IC50 (nM) … from expiCHO-S” value is on record?
**A.** Its value is 0.95 nM.

**Q.** Which “anti-NGF IC50 (nM), U2OS TrkA_p75 assay; construct from HEK293” value does the source give for B9 here?
**A.** Its value is 0.43 nM.

molecular target: FGFR3; test: cell-based or functional assay

**Q.** With B1 as the binder, how does the “FGF18 EC50 (nM), BaF3/FGFR3 assay; construct from expiCHO-S” value read?
**A.** The value was 0.14 nM.

**Q.** B2 was tested. Which “FGF18 EC50 (nM), BaF3/FGFR3 assay; construct from expiCHO-S” value did it give?
**A.** The value was 0.06 nM.

**Q.** B3 was tested. Which “FGF18 EC50 (nM), BaF3/FGFR3 assay; construct from expiCHO-S” value did it give?
**A.** Its value is 0.07 nM.

**Q.** Which “FGF18 EC50 (nM), BaF3/FGFR3 assay; construct from expiCHO-S” value does the source give for B4 here?
**A.** The value was 0.02 nM.

**Q.** How did the “FGF18 EC50 (nM), BaF3/FGFR3 assay; construct from expiCHO-S” value turn out when B5 was run?
**A.** The value was 0.05 nM.

**Q.** How did the “FGF18 EC50 (nM), BaF3/FGFR3 assay; construct from HEK293” value turn out when B6 was run?
**A.** The value was 0.06 nM.

**Q.** B7 was tested. Which “FGF18 EC50 (nM), BaF3/FGFR3 assay; construct from expiCHO-S” value did it give?
**A.** Its value is 0.02 nM.

**Q.** B8 was tested. Which “FGF18 EC50 (nM), BaF3/FGFR3 assay; construct from expiCHO-S” value did it give?
**A.** Its value is 0.1 nM.

**Q.** Which “FGF18 EC50 (nM), BaF3/FGFR3 assay; construct from HEK293” value does the source give for B9 here?
**A.** Its value is 0.16 nM.
